Among the data in US20130022606A1 are EC50 values, retold here.

This test addresses rat prolactin receptor on Nb2 rat lymphoma cells (rat) (UniProt P05710). The test can be described thus: FACS on rat lymphoma cell line Nb2, IgG1.

B1: 001-E06 (IgG1) (antibody, V domains shown)
VH: QVELLESGGGLVQPGGSLRLSCAASGFTFSSYWMSWVRQAPGKGLEWVSSVSDTGTDTHYADSVKGRFTISRDNSKNTLYLQMNSLRAEDTAVYYCAKTPLAYSSGWYYFDYWGQGTLVTVSS
VL: DIVLTQPPSASGTPGQRVTISCSGSSSNIGSNTVNWYQQLPGTAPKLLIYRNYQRPSGVPDRFSGSKSGTSASLAISGLRSEDEADYYCQSYDSSLSGSVFGGGTKLTVLG
Turning to B1, the EC50 (as a rule, the midpoint of the concentration-response curve) is 1.2 nM.

B2: XHA06.642 (antibody, V domains shown)
VH: EVQLVESGGDLVKPGGSLKLSCAVSGFTFSSYGMSWVRQTPDKRLEWVATVSSGGTYTYYPDSVKGRFTISRDNAKNTLYLQMSSLKSEDSAMYYCARHRGNYYATYYYAMDYWGQGTSVTVSS
VL: DIVLTQSPASLAVSLGQGATISCRASKSVSTSGYTYMHWYQQKPGQPPKLLIYLASNLESGVPARFSGSGSGTDFTLNIHPVEEEDAATYYCQHSGELPPSFGGGTKLEIKR
The molecule B2 gave an EC50 of 1.1 nM.

B3: HE06.642 (antibody, V domains shown)
VH: EVQLVESGGGLVQPGGSLRLSCAVSGFTFSSYGMSWVRQAPGKGLEWVATVSSGGTYTYYPDSVKGRFTISRDNSKNTLYLQMNSLRAEDTAVYYCARHRGNYYATYYYAMDYWGQGTLVTVSS
VL: DIVLTQSPDSLAVSLGERATINCKASKSVSTSGYTYMHWYQQKPGQPPKLLIYLASNRESGVPDRFSGSGSGTDFTLTISPVQAEDVATYYCQHSGELPPSFGQGTKLEIKR
On to B3, for which the EC50 worked out at 0.9 nM.
